In the supplement of paper PMC9170038:

System: K4 kissing-loop RNA reporter
Experiment: apparent KD of K4 kissing-loop reporter; higher = weaker reporter binding
Conditions: Eterna round: R107
Protocol: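 RNA-MaP round R107: designed RNA switches with theophylline, tryptophan, arginine or FMN aptamers are transcribed on-chip within common flanks. They are titrated with a labelled K4 kissing-loop RNA reporter in RNA-MaP buffer (100 mM Tris pH 7.5, 80 mM KCl, 4 mM MgCl2), without ligand or with the indicated ligand. Median apparent KD per design.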

[1] = input ligand: theophylline 20 uM
[2] = input ligand: tryptophan 2.4 mM
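Further: bound reporter read as fluorescence of individual clusters on recovered sequencing chips by microscopy, with normalized cluster intensities fitted with a binding model.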

## CGUUGGAGUGAUGUUCCAGGUUGUACGGAUACCAGCCAAGCCAGCGGCCCUUGGCAGCCGACUAUUGCAGUGAUGUUGUGAUGCC [Same State Theophylline A GF 3]
Input ligand: FMN 200 uM
  apparent KD of K4 kissing-loop reporter: 715 nM
Input ligand: arginine 13.2 mM
  apparent KD of K4 kissing-loop reporter: 539 nM
Input ligand: none
  apparent KD of K4 kissing-loop reporter: 751 nM
[1]
  apparent KD of K4 kissing-loop reporter: 772 nM
[2]
  apparent KD of K4 kissing-loop reporter: 524 nM

## CUACGACAGGAAGGAUAUCGUGUGGAGAGCAGUUAUUUAAAGGUAGUGAUGUUACAGGAGACUGUUCGAGAAGGUCCUCAGUUAC [theeternabot_exclusion_KL_FMN_B_32]
Input ligand: FMN 200 uM
  apparent KD of K4 kissing-loop reporter: 104 nM
Input ligand: arginine 13.2 mM
  apparent KD of K4 kissing-loop reporter: 98.6 nM
Input ligand: none
  apparent KD of K4 kissing-loop reporter: 119 nM
[1]
  apparent KD of K4 kissing-loop reporter: 93.3 nM
[2]
  apparent KD of K4 kissing-loop reporter: 103 nM

## CUACGUCGAGCGGCCGCCACUAUGGGUUGCCAAGUAGUGAUGUUACUGAGCUUUUAAUGAUCCUUUAGGACCGGGCUUUGGGAGG [theeternabot_sameState_KL_Trp_B_46]
Input ligand: FMN 200 uM
  apparent KD of K4 kissing-loop reporter: 281 nM
Input ligand: arginine 13.2 mM
  apparent KD of K4 kissing-loop reporter: 203 nM
Input ligand: none
  apparent KD of K4 kissing-loop reporter: 227 nM
[1]
  apparent KD of K4 kissing-loop reporter: 269 nM
[2]
  apparent KD of K4 kissing-loop reporter: 174 nM

## CUACUGAGUGAUGUUCAACAUAAUGUCGAUACCAGCACAUUUGCCUGCCCUUGGCAGCGACGCACCAGGACCUGAGAGUACUGGU [theeternabot_sameState_KL_Theo_A_13]
Input ligand: FMN 200 uM
  apparent KD of K4 kissing-loop reporter: 567 nM
Input ligand: arginine 13.2 mM
  apparent KD of K4 kissing-loop reporter: 637 nM
Input ligand: none
  apparent KD of K4 kissing-loop reporter: 623 nM
[1]
  apparent KD of K4 kissing-loop reporter: 612 nM
[2]
  apparent KD of K4 kissing-loop reporter: 410 nM

## CUAUCCCGCCGUGUACGUAAUAUACGGUGCCGAGGACCGGUACGGCCGCCACUCGAUAAGCUUUGUCGGAGUGAUGUUCCGACCG [Maais]
Input ligand: FMN 200 uM
  apparent KD of K4 kissing-loop reporter: 200 nM
Input ligand: arginine 13.2 mM
  apparent KD of K4 kissing-loop reporter: 156 nM
Input ligand: none
  apparent KD of K4 kissing-loop reporter: 229 nM
[1]
  apparent KD of K4 kissing-loop reporter: 280 nM
[2]
  apparent KD of K4 kissing-loop reporter: 202 nM

## CUCAAGUGAGGAUUUCGACAUCAAGAUGUGAAGGAUAUGUUACCAAACAGAAGGUCACGAUGUCAUCUAUGAGUGAUGUUCAGGA [theeternabot_sameState_KL_FMN_A_31]
Input ligand: FMN 200 uM
  apparent KD of K4 kissing-loop reporter: 208 nM
Input ligand: arginine 13.2 mM
  apparent KD of K4 kissing-loop reporter: 130 nM
Input ligand: none
  apparent KD of K4 kissing-loop reporter: 208 nM
[1]
  apparent KD of K4 kissing-loop reporter: 186 nM
[2]
  apparent KD of K4 kissing-loop reporter: 181 nM

## CUCUGCUUCCCAGGGCUAGUGAUGUUAGCCCGAGGACCGGUACGGCCGCCACUCGAGUUAAGCAUCGACCGUGAAUGUUCGAAGC [theeternabot_exclusion_KL_Trp_A_48]
Input ligand: FMN 200 uM
  apparent KD of K4 kissing-loop reporter: 138 nM
Input ligand: arginine 13.2 mM
  apparent KD of K4 kissing-loop reporter: 143 nM
Input ligand: none
  apparent KD of K4 kissing-loop reporter: 139 nM
[1]
  apparent KD of K4 kissing-loop reporter: 179 nM
[2]
  apparent KD of K4 kissing-loop reporter: 140 nM

## CUGACGCUGAUACGGUGGCCGGUGGUCGUGCGAGGACCGGUACGGCCGCCACUCGCAUGAGUGAUGUUCAUGUGUCGUCGUCGUC [#05 K4 Tryptophan A Exclusion]
Input ligand: FMN 200 uM
  apparent KD of K4 kissing-loop reporter: 116 nM
Input ligand: arginine 13.2 mM
  apparent KD of K4 kissing-loop reporter: 95.9 nM
Input ligand: none
  apparent KD of K4 kissing-loop reporter: 114 nM
[1]
  apparent KD of K4 kissing-loop reporter: 90.2 nM
[2]
  apparent KD of K4 kissing-loop reporter: 123 nM

## CUGUUGUAGACUGAUACCAGUCUCACAGCAGAUGUGUGGGACUUAGUGAUGUUAAGUACCGACCCUUGGCAGCAGUCUACGACCU [Theo B SS t6]
Input ligand: FMN 200 uM
  apparent KD of K4 kissing-loop reporter: 428 nM
Input ligand: arginine 13.2 mM
  apparent KD of K4 kissing-loop reporter: 374 nM
Input ligand: none
  apparent KD of K4 kissing-loop reporter: 377 nM
[1]
  apparent KD of K4 kissing-loop reporter: 452 nM
[2]
  apparent KD of K4 kissing-loop reporter: 394 nM

## CUUAUUAUGUCGGCCGCCACUCAAUGAUAAUCCACUAAAUUGCGAUUCAGUGAUGUUGAAGUGCUGAGGACCGGGACUAUUAACA [theeternabot_sameState_KL_Trp_B_22]
Input ligand: FMN 200 uM
  apparent KD of K4 kissing-loop reporter: 541 nM
Input ligand: arginine 13.2 mM
  apparent KD of K4 kissing-loop reporter: 206 nM
Input ligand: none
  apparent KD of K4 kissing-loop reporter: 345 nM
[1]
  apparent KD of K4 kissing-loop reporter: 214 nM
[2]
  apparent KD of K4 kissing-loop reporter: 316 nM

## CUUCGAUUAACAGAUACCAGUCAUACUGGAGCCUCACUCGAGUGAGUGAUGUUCACUUGAGACCCUUGGCAGCUGUUAGUCGAAG [Theo B Ex t1a]
Input ligand: FMN 200 uM
  apparent KD of K4 kissing-loop reporter: 92.3 nM
Input ligand: arginine 13.2 mM
  apparent KD of K4 kissing-loop reporter: 86.2 nM
Input ligand: none
  apparent KD of K4 kissing-loop reporter: 89.6 nM
[1]
  apparent KD of K4 kissing-loop reporter: 106 nM
[2]
  apparent KD of K4 kissing-loop reporter: 93.4 nM

## CUUCGUAAAGGCCCAGUGAUGUUGGGCACUCGAGGACCGGUACGGCCGCCACUCGCUCCCUAAGUCGCGUGCGUGGGCCACCGCC [Anala]
Input ligand: FMN 200 uM
  apparent KD of K4 kissing-loop reporter: 115 nM
Input ligand: arginine 13.2 mM
  apparent KD of K4 kissing-loop reporter: 97 nM
Input ligand: none
  apparent KD of K4 kissing-loop reporter: 99.1 nM
[1]
  apparent KD of K4 kissing-loop reporter: 94.5 nM
[2]
  apparent KD of K4 kissing-loop reporter: 104 nM

## CUUGAAAUGACUGAUACCAGUGAAAAUAUAUGUAGUGAUGUUAUAUACUAAUUUAAUAAGCGCCCUUGGCAGCAGUAUGAAUUAU [AstrosExc-theB#17]
Input ligand: FMN 200 uM
  apparent KD of K4 kissing-loop reporter: 861 nM
Input ligand: arginine 13.2 mM
  apparent KD of K4 kissing-loop reporter: 516 nM
Input ligand: none
  apparent KD of K4 kissing-loop reporter: 868 nM
[1]
  apparent KD of K4 kissing-loop reporter: 764 nM
[2]
  apparent KD of K4 kissing-loop reporter: 702 nM

## CUUGAAAUGACUGAUACCAGUGAAAAUCUAUGUAGUGAUGUUAUAUACUAAUUUAAUAAGCGCCCUUGGCAGCAGUAUGAAUUAU [AstrosExc-theB#18]
Input ligand: FMN 200 uM
  apparent KD of K4 kissing-loop reporter: 657 nM
Input ligand: arginine 13.2 mM
  apparent KD of K4 kissing-loop reporter: 260 nM
Input ligand: none
  apparent KD of K4 kissing-loop reporter: 532 nM
[1]
  apparent KD of K4 kissing-loop reporter: 561 nM
[2]
  apparent KD of K4 kissing-loop reporter: 445 nM

## CUUGCCCUUUCGGCCGCCACUCCGAGUGAUGUUGGGAUGUUCGGUGCAGCCAUUUAGAUGUCAGUGAGGACCGGGAAAUUAUGCG [theeternabot_exclusion_KL_Trp_B_9]
Input ligand: FMN 200 uM
  apparent KD of K4 kissing-loop reporter: 220 nM
Input ligand: arginine 13.2 mM
  apparent KD of K4 kissing-loop reporter: 128 nM
Input ligand: none
  apparent KD of K4 kissing-loop reporter: 251 nM
[1]
  apparent KD of K4 kissing-loop reporter: 150 nM
[2]
  apparent KD of K4 kissing-loop reporter: 196 nM

## CUUGGUCCACGAAGGAGCGCCGUGCAGUGAUGUUGCAGUCAGAUCGAGUGAUGUUUCGGGCGGCAGGUAGGUCGCGUGGCCCUUU [Excusion Arginine B GF 25]
Input ligand: FMN 200 uM
  apparent KD of K4 kissing-loop reporter: 655 nM
Input ligand: arginine 13.2 mM
  apparent KD of K4 kissing-loop reporter: 362 nM
Input ligand: none
  apparent KD of K4 kissing-loop reporter: 768 nM
[1]
  apparent KD of K4 kissing-loop reporter: 640 nM
[2]
  apparent KD of K4 kissing-loop reporter: 464 nM

## CUUGGUCUACGAAGGAGCGCCGUGCAGUGAUGUUGCAGUCAGAUCGAGUGAUGUUUCGGGCGGCAGGUAGGUCGCGUGGCCCUCU [Excusion Arginine B GF 27]
Input ligand: FMN 200 uM
  apparent KD of K4 kissing-loop reporter: 574 nM
Input ligand: arginine 13.2 mM
  apparent KD of K4 kissing-loop reporter: 437 nM
Input ligand: none
  apparent KD of K4 kissing-loop reporter: 725 nM
[1]
  apparent KD of K4 kissing-loop reporter: 692 nM
[2]
  apparent KD of K4 kissing-loop reporter: 591 nM

## CUUGUACAAGUGAUGUUUGUUAUAUCCGAAGGAGCGUCGUAAUAGACAGGUAGGUCGCGGAGUUAGCUGGUUUUUUUAACAGCUA [JR_Nu_SSArginiA_Sub030]
Input ligand: FMN 200 uM
  apparent KD of K4 kissing-loop reporter: 621 nM
Input ligand: arginine 13.2 mM
  apparent KD of K4 kissing-loop reporter: 421 nM
Input ligand: none
  apparent KD of K4 kissing-loop reporter: 679 nM
[1]
  apparent KD of K4 kissing-loop reporter: 472 nM
[2]
  apparent KD of K4 kissing-loop reporter: 584 nM

## CUUUGGAGUGAUGUUCCAGGUUGUACGGAUACCAGCCAAGCCAGAGGCCCUUGGCAGCCGAGUAUUGCAGUGAUGUUGCGAUGGG [Same State Theophylline A GF 2]
Input ligand: FMN 200 uM
  apparent KD of K4 kissing-loop reporter: 304 nM
Input ligand: arginine 13.2 mM
  apparent KD of K4 kissing-loop reporter: 239 nM
Input ligand: none
  apparent KD of K4 kissing-loop reporter: 282 nM
[1]
  apparent KD of K4 kissing-loop reporter: 335 nM
[2]
  apparent KD of K4 kissing-loop reporter: 261 nM

## GAAAGAAAGUAUGAUACCAGACACCCGAGUGAUGUUCGGAACAGUGUGUUGUUCUUUUAAGUCCCUUGGCAGCAUAAAAGAAAAG [whbob_SS_Theo_B_sa86]
Input ligand: FMN 200 uM
  apparent KD of K4 kissing-loop reporter: 135 nM
Input ligand: arginine 13.2 mM
  apparent KD of K4 kissing-loop reporter: 143 nM
Input ligand: none
  apparent KD of K4 kissing-loop reporter: 151 nM
[1]
  apparent KD of K4 kissing-loop reporter: 171 nM
[2]
  apparent KD of K4 kissing-loop reporter: 110 nM

## GAACGGCUGGCGGCCGCCACUGGUAUACGAGUGAUGUUCGGAUACACAUAGAAUAAGGUGAUUGACAGGACCGGGUCAGAGCCGG [#15 K4 Tryptophan B Same State]
Input ligand: FMN 200 uM
  apparent KD of K4 kissing-loop reporter: 251 nM
Input ligand: arginine 13.2 mM
  apparent KD of K4 kissing-loop reporter: 197 nM
Input ligand: none
  apparent KD of K4 kissing-loop reporter: 234 nM
[1]
  apparent KD of K4 kissing-loop reporter: 246 nM
[2]
  apparent KD of K4 kissing-loop reporter: 180 nM
